Like-named read-outs stand apart in the source and are kept apart here.
What was measured:
Assay type in all cases: cell-based
S. sanguinis 10556 = assay: ΔPlySs1 OD600 lysis, 1 hr
B. cereus 14579 = assay: ΔPlySs1 OD600 lysis, 1 hr
S. suis strain (7711) = assay: PlySs1 optimal biochemical conditions, turbidity reduction (OD600); conditions: for pH of maximal lysis: bis-tris-propane (BTP) buffer
Procedure: FIGS. 11A and 11B depicts ΔPlySs1 pH dependence. (A) Cells of host strain 7711 were suspended in phosphate citrate buffer (40/20 mM) at a range of pH-values from 4.6 to 8.0. ΔPlySs1 was added (110 μg/ml) and OD600 was measured over 60 min (horizontal axis) at 37° C. The vertical axis represents the treated/untreated OD600-ratio at each timepoint. For each pH-value, the curve depicts the running average of 3 independent experiments. Overall, activity was maximal at the upper end of the buffering range. (B) Here, bis-tris-propane (40 mM) was employed as the buffering agent with a pH-range from 7.0 to 9.7; ΔPlySs1 was again added to 110 μg/ml. Each curve depicts the running average of 3 experiments.
FIG. 12 depicts ΔPLySS1 NaCl dependence. S. suis 7711 cells were suspended in phosphate-citrate buffer pH=7.8 (40/20 mM). NaCl was added to the above concentrations, followed by ΔPlySs1 at 110 μg/ml. Optical density at 600 nm was observed over 60 min at 37° C. In this figure, the vertical axis represents the treated/untreated OD600-ratio for each NaCl concentration, averaged over 3 independent experiments.
FIGS. 13A and 13B provides assessment of ΔPlySs1 DTT and EDTA susceptibility. (A) ΔPlySs1 was pre-incubated for 1 hr with 5 mM DTT (a large molar excess) prior to addition to 7711 cells; activity was unchanged. (B) Here, various concentrations of EDTA were included in the buffered suspension of cells prior to addition of ΔPlySs1 (110 μg/ml lysin). For both images, the vertical axis represents the treated/untreated OD600-ratio for each condition, averaged over 3 independent experiments.
(A) A ΔPlySs1 stock solution was held at each of the above temperature for 30 minutes, followed by addition to 7711 cells (270 μg/ml final enzyme concentration, final temperature=37° C., ideal buffering conditions). The curves in this image represent running averages of 3 individual experiments. In each case, complete loss of activity was observed between the 45° C. and 50° C. samples. The 3 hottest samples show a slightly higher OD600 reading than the untreated control due to flocculation of ΔPlySs1 upon denaturation. (B) The above experiment was repeated, but with 6 hours of heat-treatment prior to the assay. […] The 40° C. sample maintained essentially native activity.
The optimal biochemical conditions for PlySs1 were determined against live cells of the encoding S. suis strain (7711). For these experiments, activity was gauged through the degree of turbidity reduction (OD600) of an aqueous bacterial suspension following the addition of lysin. The pH-dependence of the enzyme was first addressed using two buffer sets with adjacent pH ranges, citrate/phosphate: 4.6-8.0; and bis-tris-propane (BTP): 7.0-9.7. An extended spectrum of lysis was observed, from 5.4-9.4 (FIG. 11A). In BTP, lysis was maximal from 8.2-9.0; at commensurate pH-values, however, the magnitude of the OD-drop was slightly more pronounced in citrate/phosphate (FIG. 11B).
At constant enzyme concentrations, bacteriolysis varied little from 0-1000 mM NaCl, with only small numeric increases under the most hypotonic conditions (FIG. 12). […] The thermal stability of PlySs1 was examined by incubating the enzyme at various elevated temperatures prior to use (the OD-drop experiment itself was always conducted at 37° C.). When held at 35° C.-60° C. for 30 min, lysin activity was virtually unaffected until 50° C., at which point it was completely abolished (FIG. 14A). […] The latter corresponds to typical porcine body temperature.

S. equi 700400 = assay: ΔPlySs1 OD600 lysis, 1 hr
S. oralis 35037 = assay: ΔPlySs1 OD600 lysis, 1 hr
B. anthracis ΔSterne = tested on: B. anthracis ΔSterne
S. salivarius 9222 = assay: ΔPlySs1 OD600 lysis, 1 hr
S. aureus RN4220 = assay: ΔPlySs1 OD600 lysis, 1 hr
S. simulans TNK3 = assay: ΔPlySs1 OD600 lysis, 1 hr
E. faecium EFSK2 = assay: ΔPlySs1 OD600 lysis, 1 hr
B. thuringiensis HD73 = assay: ΔPlySs1 OD600 lysis, 1 hr

B1: ΔPlySs1: truncated PlySs1 lysin with N-terminal enzymatic and central binding domains, N-terminal 254 amino acids, SEQ ID NO:2 (protein, listed as Streptococcus suis)
chain: MTINLETSIRWMSDRVGKVSYSMDYRNGPNSYDCSSAVYYALMAGGAISAGWAVNTEYMHDWLIRNGYVLVAENKPFNAQRHDVCILGKRGYSSGAGGHVVIFVDNVNVIHCNYARNGISIDNYNQVHRGMYYYLYRPANQPSISNKSLDQLVKETLAGVHGNGDTRKASLGSQYEAVMAVINGKASASEKSDEELAREVLAGKHGAGEDRKRSLGPRYEPVQAKVNELLKAKEKPSETAKNEPQTVQFKEDGDL
1-hour treated/untreated OD600-ratio (S. sanguinis 10556; 6.5 μg/ml): 0.48 | 1-hour treated/untreated OD600-ratio (S. sanguinis 10556; 13 μg/ml): 0.44 | 1-hour treated/untreated OD600-ratio (S. sanguinis 10556; 30 μg/ml): 0.28 | 1-hour treated/untreated OD600-ratio (S. sanguinis 10556; 65 μg/ml): 0.21 | 1-hour treated/untreated OD600-ratio (S. sanguinis 10556; 130 μg/ml): 0.11 | 1-hour treated/untreated OD600-ratio (B. cereus 14579; 6.5 μg/ml): 0.93 | 1-hour treated/untreated OD600-ratio (B. cereus 14579; 13 μg/ml): 0.92 | 1-hour treated/untreated OD600-ratio (B. cereus 14579; 30 μg/ml): 0.86 | 1-hour treated/untreated OD600-ratio (B. cereus 14579; 65 μg/ml): 0.90 | 1-hour treated/untreated OD600-ratio (B. cereus 14579; 130 μg/ml): 0.86 | effect of salt concentration on bacteriolysis (S. suis strain (7711); 0-1000 mM NaCl, constant enzyme concentration): varied little | thermal stability, activity after heat treatment (S. suis strain (7711); 6-hr incubation at 40° C.): unaffected | thermal stability, activity after heat treatment (S. suis strain (7711); 6-hr incubation at 45° C.): partial decrease in activity | pH of maximal lysis (S. suis strain (7711); S. suis 7711): 9.0 | pH of maximal lysis (S. suis strain (7711); S. suis 7711, listed as PlySs1): 8.2-9.0 | pH spectrum of lysis (S. suis strain (7711); S. suis 7711, citrate/phosphate 4.6-8.0 and bis-tris-propane 7.0-9.7): 5.4-9.4 | effect of DTT on activity (S. suis strain (7711); exposure to an excess of DTT (5 mM, 1 hr pre-incubation)): did not negatively impact activity | effect of EDTA on activity (S. suis strain (7711); exposure to an excess of EDTA): did not negatively impact activity | temperature at which activity is completely abolished (S. suis strain (7711); held at 35° C.-60° C. for 30 min before assay at 37° C.): 50 °C | 1-hour treated/untreated OD600-ratio (S. equi 700400; 6.5 μg/ml): 0.48 | 1-hour treated/untreated OD600-ratio (S. equi 700400; 13 μg/ml): 0.25 | 1-hour treated/untreated OD600-ratio (S. equi 700400; 30 μg/ml): 0.15 | 1-hour treated/untreated OD600-ratio (S. equi 700400; 65 μg/ml): 0.07 | 1-hour treated/untreated OD600-ratio (S. equi 700400; 130 μg/ml): 0.09 | 1-hour treated/untreated OD600-ratio (S. oralis 35037; 6.5 μg/ml): 0.30 | 1-hour treated/untreated OD600-ratio (S. oralis 35037; 13 μg/ml): 0.13 | 1-hour treated/untreated OD600-ratio (S. oralis 35037; 30 μg/ml): 0.08 | 1-hour treated/untreated OD600-ratio (S. oralis 35037; 65 μg/ml): 0.07 | 1-hour treated/untreated OD600-ratio (S. oralis 35037; 130 μg/ml): 0.04 | 1-hour treated/untreated OD600-ratio (B. anthracis ΔSterne; 6.5 μg/ml): 1.02 | 1-hour treated/untreated OD600-ratio (B. anthracis ΔSterne; 30 μg/ml): 1.02 | 1-hour treated/untreated OD600-ratio (B. anthracis ΔSterne; 65 μg/ml): 0.98 | 1-hour treated/untreated OD600-ratio (B. anthracis ΔSterne; 130 μg/ml): 0.90 | 1-hour treated/untreated OD600-ratio (S. salivarius 9222; 6.5 μg/ml): 0.80 | 1-hour treated/untreated OD600-ratio (S. salivarius 9222; 13 μg/ml): 0.76 | 1-hour treated/untreated OD600-ratio (S. salivarius 9222; 30 μg/ml): 0.56 | 1-hour treated/untreated OD600-ratio (S. salivarius 9222; 65 μg/ml): 0.53 | 1-hour treated/untreated OD600-ratio (S. salivarius 9222; 130 μg/ml): 0.37 | 1-hour treated/untreated OD600-ratio (S. aureus RN4220; 6.5 μg/ml): 0.89 | 1-hour treated/untreated OD600-ratio (S. aureus RN4220; 13 μg/ml): 0.78 | 1-hour treated/untreated OD600-ratio (S. aureus RN4220; 30 μg/ml): 0.55 | 1-hour treated/untreated OD600-ratio (S. aureus RN4220; 65 μg/ml): 0.31 | 1-hour treated/untreated OD600-ratio (S. aureus RN4220; 130 μg/ml): 0.10 | 1-hour treated/untreated OD600-ratio (S. simulans TNK3; 6.5 μg/ml): 0.96 | 1-hour treated/untreated OD600-ratio (S. simulans TNK3; 13 μg/ml): 1.00 | 1-hour treated/untreated OD600-ratio (S. simulans TNK3; 30 μg/ml): 1.00 | 1-hour treated/untreated OD600-ratio (S. simulans TNK3; 65 μg/ml): 1.00 | 1-hour treated/untreated OD600-ratio (S. simulans TNK3; 130 μg/ml): 0.96 | 1-hour treated/untreated OD600-ratio (E. faecium EFSK2; 6.5 μg/ml): 0.85 | 1-hour treated/untreated OD600-ratio (E. faecium EFSK2; 13 μg/ml): 0.67 | 1-hour treated/untreated OD600-ratio (E. faecium EFSK2; 30 μg/ml): 0.52 | 1-hour treated/untreated OD600-ratio (E. faecium EFSK2; 65 μg/ml): 0.32 | 1-hour treated/untreated OD600-ratio (E. faecium EFSK2; 130 μg/ml): 0.13 | 1-hour treated/untreated OD600-ratio (B. thuringiensis HD73; 6.5 μg/ml): 0.99 | 1-hour treated/untreated OD600-ratio (B. thuringiensis HD73; 13 μg/ml): 0.98 | 1-hour treated/untreated OD600-ratio (B. thuringiensis HD73; 30 μg/ml): 0.93 | 1-hour treated/untreated OD600-ratio (B. thuringiensis HD73; 65 μg/ml): 0.86 | 1-hour treated/untreated OD600-ratio (B. thuringiensis HD73; 130 μg/ml): 0.60

Source: patent US20140179594A1, “STREPTOCOCCUS BACTERIOPHAGE LYSINS FOR TREATMENT OF GRAM POSITIVE BACTERIA IN COMPANION ANIMALS AND LIVESTOCK” (priority 2011, published 2014)
